The record followed here is patent publication US20050064384A1, “Recruitment of mst1 or mst2 protein kinase to induce apoptosis in eukaryotic cells” (priority 2001, published 2005).

The target in this assay is FLAG-tagged wild type (wt) MST1 (mouse) (UniProt Q9JI11). In words: cell-based or functional assay.
FLAG-tagged wild type (wt) MST1 (mouse), sequence (Q9JI11 other isoform, or with tags, fused parts or gaps limits assumed): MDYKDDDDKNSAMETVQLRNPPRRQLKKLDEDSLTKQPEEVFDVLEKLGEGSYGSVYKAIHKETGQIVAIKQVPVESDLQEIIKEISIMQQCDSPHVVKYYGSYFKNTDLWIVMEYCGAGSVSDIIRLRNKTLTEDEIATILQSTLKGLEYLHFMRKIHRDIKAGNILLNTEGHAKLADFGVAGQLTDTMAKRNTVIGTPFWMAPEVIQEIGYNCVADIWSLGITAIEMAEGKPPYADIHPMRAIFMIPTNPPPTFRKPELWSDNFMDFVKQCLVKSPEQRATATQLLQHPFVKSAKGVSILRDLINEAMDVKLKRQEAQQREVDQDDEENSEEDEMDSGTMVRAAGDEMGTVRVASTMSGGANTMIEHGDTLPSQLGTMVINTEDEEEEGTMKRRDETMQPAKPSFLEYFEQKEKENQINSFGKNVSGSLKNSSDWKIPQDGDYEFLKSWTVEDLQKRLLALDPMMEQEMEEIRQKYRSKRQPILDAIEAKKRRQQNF

“NORECAAX (NORE fused to the Ki-Ras4B membrane-association CAAX segment) (from UniProt Q5EBH1 1-413)” gave a fraction of annexin V-stained NIH3T3 cells of 50%.
